Series [1] concerns RAD51AP1 full-length, His6/FLAG (human). As to the kind of experiment: EMSA. The conditions noted are these: apparent, EMSA: 50 mM Tris-HCl pH 7.5, 100 mM NaCl, 4 C, 30 min, native 5% PAGE in 0.2x TBE. A general note: A gel shift assay detects complexes by their altered migration in electrophoresis.
The target of series [2] is mononucleosome core particle (NCP) (human) (UniProt P04908). Kind of series: native gel or EMSA; apparent; full-length RAD51AP1 with the NCP, free NCP band quantified after ethidium bromide staining, corrected for the diminished staining of NCP-bound DNA.
For the next series, the target named is T1, purified human RAD51 (human, UniProt Q06609 1-339).
T1 construct: DNA repair protein RAD51 homolog 1 (RAD51 recombinase), human; also called RAD51 recombinase; source: purified
T1 sequence (looked up): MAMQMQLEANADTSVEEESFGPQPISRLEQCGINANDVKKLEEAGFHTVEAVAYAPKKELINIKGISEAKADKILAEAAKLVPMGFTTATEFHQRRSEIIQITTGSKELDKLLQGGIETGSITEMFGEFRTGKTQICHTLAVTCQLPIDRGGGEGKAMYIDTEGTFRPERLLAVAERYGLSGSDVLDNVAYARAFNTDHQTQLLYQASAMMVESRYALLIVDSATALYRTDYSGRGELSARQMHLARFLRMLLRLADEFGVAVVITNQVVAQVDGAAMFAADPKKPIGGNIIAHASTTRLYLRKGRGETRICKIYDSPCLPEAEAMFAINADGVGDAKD
Kind of series: far-Western, overlay or dot blot; RAD51AP1/NCP complex separated by EMSA (native gel), transferred to PVDF, membrane incubated with 3 ug/ml purified RAD51 in buffer I at 4 C overnight, bound RAD51 detected with anti-RAD51. The conditions noted are these: both partners purified.

On to 147 bp dsDNA (Widom 601), for which the Kd in series [1] (0.1 uM DNA, EtBr stain) amounted to 12 nM. In the case of NCP (Widom 601, 147 bp), the Kd in series [1] (corrected for EtBr staining (111/5.2; uncorrected 111 nM), 0.2 uM NCP) was found to be 21 nM. As for “full-length MBP-/His6-RAD51AP1 (from UniProt Q96B01-2 1-335) (natural protein)”, the Kd in series [2] was found to be 21 nM.

B1: His6-/FLAG-tagged human RAD51AP1 (natural protein, UniProt Q96B01-2 1-335, looked up)
chain: MVRPVRHKKPVNYSQFDHSDSDDDFVSATVPLNKKSRTAPKELKQDKPKPNLNNLRKEEIPVQEKTPKKRMALDDKLYQRDLEVALALSVKELPTVTTNVQNSQDKSIEKHGSSKIETMNKSPHISNCSVASDYLDLDKITVEDDVGGVQGKRKAASKAAAQQRKILLEGSDGDSANDTEPDFAPGEDSEDDSDFCESEDNDEDFSMRKSKVKEIKKKEVKVKSPVEKKEKKSKSKCNALVTSVDSAPAAVKSESQSLPKKVSLSSDTTRKPLEIRSPSAESKKPKWVPPAASGGSRSSSSPLVVVSVKSPNQSLRLGLSRLARVKPLHPNATST
notes: numbers count on: RAD51AP1 isoform 2; also called His6/FLAG-tagged RAD51AP1; full-length FLAG-tagged RAD51AP1; source: expressed and purified
Consider B1, for which, in the series with purified human RAD51, the binding result is recorded as “binds”.

These data come from paper PMC8233230, “RAD51AP1 mediates RAD51 activity through nucleosome interaction” (The Journal of Biological Chemistry, 2021).
